According to PMC9112662, “Scaffold stability and P14′ residue steric hindrance in the differential inhibition of FXIIa by Aedes aegypti trypsin inhibitor versus Infestin-4” (Bioscience Reports, 2022):

Target: human Factor XIIa (human) (UniProt P00748)
Sequence (P00748 20-615): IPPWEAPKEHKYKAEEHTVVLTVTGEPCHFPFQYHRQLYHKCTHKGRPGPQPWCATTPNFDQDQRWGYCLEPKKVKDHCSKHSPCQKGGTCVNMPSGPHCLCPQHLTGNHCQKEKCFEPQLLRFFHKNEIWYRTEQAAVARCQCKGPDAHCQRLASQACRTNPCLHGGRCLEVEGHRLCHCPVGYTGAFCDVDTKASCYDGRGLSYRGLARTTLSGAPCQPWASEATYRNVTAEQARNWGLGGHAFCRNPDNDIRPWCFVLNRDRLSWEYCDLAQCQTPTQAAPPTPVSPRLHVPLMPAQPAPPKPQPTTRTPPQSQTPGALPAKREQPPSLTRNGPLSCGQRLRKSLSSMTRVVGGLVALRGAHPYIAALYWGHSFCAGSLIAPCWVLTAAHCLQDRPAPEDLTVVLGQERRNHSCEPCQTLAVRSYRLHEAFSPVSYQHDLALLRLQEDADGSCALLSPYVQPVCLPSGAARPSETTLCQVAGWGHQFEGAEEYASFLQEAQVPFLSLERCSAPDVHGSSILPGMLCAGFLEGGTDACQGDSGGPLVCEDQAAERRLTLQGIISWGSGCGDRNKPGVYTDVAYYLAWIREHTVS

In order of falling IC50 of inhibition of FXIIa activity, chromogenic assay (substrate S-2302):
1. Inf4_F10P+N12I+V14M (domain or fragment)  70.5 nM
2. Inf4_G25N (domain or fragment)  54.1 nM
3. Inf4_F10P+V14M (domain or fragment)  42.1 nM
4. Inf4_F10P+N12I (domain or fragment)  22.8 nM
5. AaTI_Inf4 C1C3+C5C6+N27G  11.4 nM
6. Inf4_N12I+V14M (domain or fragment)  7.9 nM
